Assay results: article PMC4411560

Experiments:
[1] = target: 30S IC_(−1/3): canonical 30S initiation complex lacking IF1 and IF3 (E. coli (strain MRE600)); assay: FRET or BRET
[2] = target: 30S IC_(−1/3,Met): pseudo 30S initiation complex lacking IF1 and IF3 carrying Met-tRNA^fMet (E. coli (strain MRE600)); assay: FRET or BRET

“IF2(Cy5): Cy5-labeled E. coli initiation factor 2, γ-isoform, G810C (natural protein)” showed a Kd [1] of 50 nM, a kon [1] of 1.3e+07 M⁻¹ s⁻¹ and a koff [2] of 1.3 s⁻¹. It also gave a kon [2] of 19000 M⁻¹ s⁻¹.
